Results as given in patent US12338268B2, “Compositions and methods for treating protein aggregation-associated diseases” (The Board of Trustees of the Leland Stanford Junior …, priority 2019, dated 2025).
“Also recorded” adds a separate entry of the source.

Tests used:
PolyQ51 = experiment: In vitro filter trap aggregation assay of PolyQ51; format: biochemical; settings: 5× molar excess, SDS-insoluble aggregates
Protocol: (§1) Mutant Huntingtin and PolyQ51 aggregation reactions were performed at concentration 3 μM of mHttQ51, 0.044 Units/μl acTEV protease (Invitrogen, Carlsbad, CA, USA), and respective concentrations of Ovalbumin (Sigma) or purified NAC chaperone variants. Aggregation was conducted in TEV reaction buffer (Invitrogen) and incubated at 30° C. AtxQ78 was buffer exchanged into TEV reaction buffer using 7K MWCO Zeba Spin Desalting Columns (Thermo Fisher) to initiate aggregation. AtxQ78 aggregation reactions were performed at 30 μM of Ataxin-3 in reaction buffer (20 mM sodium phosphate pH 7.5, 25 mM NaCl, 6 mM MgCl2, 2 mM DTT, 5% (v/v) glycerol) and incubated at 37° C. Samples at varied time-points were then taken and combined in a 1:1 ratio with a 4% (w/v) SDS, 100 mM DTT solution, boiled for 5 min at 95° C., and stored at −20° C. Samples were then filtered through a 0.22 μm cellulose acetate membrane (Whatman) and washed with 0.1% (w/v) SDS. Membrane was probed using an S-tag antibody (Abcam) for mHttQ51 and PolyQ51, and with a His-tag antibody (Abcam) for AtxQ78.

[1] = molecular target: T1, mutant Huntingtin exon 1 (mHttQ51) (Homo sapiens, UniProt P42858, INS38QQQQQQQQQQQQQQQQQQQQQQQQQQQQQQQ); experiment: In vitro filter trap aggregation assay of mutant Huntingtin exon 1; format: biochemical
T1 construct: mutant Huntingtin exon 1 containing a pathogenic stretch of 51 glutamines (mHttQ51); GST (N, cleaved yes); made in house; host or cells: E. coli Rosetta 2(DE3) pLysS
T1 sequence (P42858 with tags, fused parts or gaps with the stated changes limits assumed): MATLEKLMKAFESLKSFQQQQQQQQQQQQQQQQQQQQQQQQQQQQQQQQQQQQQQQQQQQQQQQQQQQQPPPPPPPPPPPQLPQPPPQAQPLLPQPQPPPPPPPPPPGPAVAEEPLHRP
Protocol: as §1

[2] = molecular target: T2, full-length Ataxin-3 (AtxQ78) (Homo sapiens, UniProt P54252, INS305QQQQQQQQQQQQQQQQQQQQQQQQQQQQQQQQQQQQQQQQQQQQQQQQQQQQQQQQQQQQQQQQ); experiment: Filter trap aggregation assay of AtxQ78; format: biochemical; settings: equimolar (1×) NAC, 37° C.
T2 construct: full-length Ataxin-3 harboring a stretch of 78 glutamines (AtxQ78); made in house
T2 sequence (P54252 with tags, fused parts or gaps with the stated changes): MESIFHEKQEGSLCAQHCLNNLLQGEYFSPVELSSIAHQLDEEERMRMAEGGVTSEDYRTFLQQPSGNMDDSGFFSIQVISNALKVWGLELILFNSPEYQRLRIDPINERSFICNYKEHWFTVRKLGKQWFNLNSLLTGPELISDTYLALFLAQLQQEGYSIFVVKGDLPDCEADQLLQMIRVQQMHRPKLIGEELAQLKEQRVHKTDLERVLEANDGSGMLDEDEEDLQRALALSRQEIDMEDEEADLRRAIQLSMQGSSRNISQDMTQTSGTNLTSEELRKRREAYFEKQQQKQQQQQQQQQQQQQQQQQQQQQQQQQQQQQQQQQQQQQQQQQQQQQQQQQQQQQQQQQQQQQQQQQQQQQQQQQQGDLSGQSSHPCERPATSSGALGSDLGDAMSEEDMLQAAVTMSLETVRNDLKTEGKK
Protocol: as §1

AtxQ78 = molecular target: T3, AtxQ78 (Homo sapiens, UniProt P54252, INS305QQQQQQQQQQQQQQQQQQQQQQQQQQQQQQQQQQQQQQQQQQQQQQQQQQQQQQQQQQQQQQQQ); experiment: Chemical crosslinking (BS3) and mass spectrometry of NAC-AtxQ78 complexes; format: binding; settings: NAC and AtxQ78 1:1, BS3 crosslinker, LC-MS
T3 construct: full-length Ataxin-3 harboring a stretch of 78 glutamines (AtxQ78); made in house
T3 sequence (P54252 with tags, fused parts or gaps with the stated changes): as the sequence (P54252 with tags, fused parts or gaps with the stated changes) above
Protocol: For crosslinking AtxQ78 was buffer exchanged into 10 mM sodium phosphate (pH 7.2) and added to NAC at a 1:1 ratio (20 μM NAC+20 μM AtxQ78). A 1:1 mixture of BS^3-d^0 and BS^3-d^4 was added to the proteins at 20× and 50× molar excess and the reaction allowed to proceed at room temperature for 1 hour before quenching with the addition of 50 mM Tris-Cl (pH 7.5). Samples were diluted with 2× loading buffer and separated on Tris-tricine gels followed by staining with InstantBlue (Expedeon).
Gel pieces containing the crosslinked complexes were washed with 25 mM ammonium bicarbonate (pH 7.8) for 1 h with shaking. The solution was removed and the pieces destained three times with 25 mM ammonium bicarbonate in 60% acetonitrile. Gel pieces were dehydrated with 100% acetonitrile for 10 min and left to air-dry in a laminar flowhood for 1 h. Rehydration of the gel pieces was achieved by adding 0.1 mg/ml trypsin solution and incubating the samples on ice for 30 min. Excess trypsin was removed and the samples were incubated at 37° C. and 1000 rpm overnight. Peptides were extracted from the gel using 3 washes with 60% acetonitrile/5% formic acid. The extracts were pooled and concentrated using a SpeedVac before being analyzed using a nanoACQUITY LC-system coupled to a Synapt HDMS G2Si mass spectrometer. […]

[3] = molecular target: GdmCl-denatured firefly luciferase (Photinus pyralis, UniProt P08659); experiment: Luciferase refolding assay; format: biochemical
Chain of GdmCl-denatured firefly luciferase (P08659 whole entry): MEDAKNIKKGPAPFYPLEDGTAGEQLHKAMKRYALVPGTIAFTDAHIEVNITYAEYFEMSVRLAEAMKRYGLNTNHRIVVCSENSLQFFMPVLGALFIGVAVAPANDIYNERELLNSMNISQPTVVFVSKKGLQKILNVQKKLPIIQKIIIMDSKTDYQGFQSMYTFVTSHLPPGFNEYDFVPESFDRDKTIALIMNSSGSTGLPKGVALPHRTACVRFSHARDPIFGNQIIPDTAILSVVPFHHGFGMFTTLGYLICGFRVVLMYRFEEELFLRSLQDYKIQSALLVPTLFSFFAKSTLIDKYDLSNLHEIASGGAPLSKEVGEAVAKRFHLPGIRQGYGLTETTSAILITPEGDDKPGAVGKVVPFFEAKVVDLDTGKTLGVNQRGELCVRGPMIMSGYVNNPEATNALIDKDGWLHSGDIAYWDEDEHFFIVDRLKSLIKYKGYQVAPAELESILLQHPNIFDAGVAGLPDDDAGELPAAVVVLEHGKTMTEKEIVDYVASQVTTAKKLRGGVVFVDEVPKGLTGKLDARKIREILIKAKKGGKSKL

Aβ40 [4] = molecular target: T4, Aβ40 (Homo sapiens, UniProt P05067); experiment: Thioflavin T fluorescence assay of Aβ40 aggregation; format: biochemical; settings: equimolar NAC variant and Aβ40 (32 μM FIG. 4C; 18 μM FIG. 12C), 37° C., 20 h
T4 construct: Aβ40 peptide was expressed and purified as described previously; made in house; host or cells: E. coli BL21 (DE3)
Protocol: Lyophilized Aβ40 was resuspended at 320 μM in 20 mM sodium phosphate pH 7.4, 0.2 mM EDTA, 0.01% (w/v) sodium azide and stored on ice. The NAC proteins were diluted to 100 μM in storage buffer (20 mM sodium phosphate pH 7.5, 25 mM NaCl, 6 mM MgCl2, 2 mM β-mercaptoethanol, 5% (v/v) glycerol) and buffer exchanged into 20 mM sodium phosphate pH 7.4, 0.2 mM EDTA, 0.01% (w/v) sodium azide, 1× complete mini protease inhibitor, EDTA free (Roche) by means of ZebaSpin 7 kDa MWCO spin columns (Thermo Scientific). Samples were prepared that contained equimolar concentrations of Aβ40 and NAC variants. Thioflavin T was added to a final concentration of 10 μM. The samples were transferred to a 96 well half-area clear bottom microplate (Corning GmbH, Wiesbaden, Germany), with 95 μL of sample in each well. The fluorescence (excitation: 440 nm, emission: 480 nm) was measured using a BMG Omega plate reader (BMG Labtech) incubating samples at 37° C., quiescently.

Aβ40 [5] = molecular target: T4, Aβ40; experiment: Transmission electron microscopy of Aβ40 reaction endpoint; format: biochemical; settings: reaction endpoint at 20 h, equimolar NAC
Protocol: After 20 h, samples were taken from the Thioflavin T plate and fixed on carbon coated copper grids, made in house. The samples were negative stained with 2% (w/v) uranyl acetate. The samples were imaged on a JEOL 1400 TEM at the Astbury structural biology laboratory, University of Leeds.

HttQ44-BodipyTMR = experiment: Fluorescence quenching assay of HttQ44-BodipyTMR aggregation; format: biochemical; settings: titrations of chaperones, 24-hour time period
Chain of HttQ44-BodipyTMR (P42858 with tags, fused parts or gaps with the stated changes limits assumed): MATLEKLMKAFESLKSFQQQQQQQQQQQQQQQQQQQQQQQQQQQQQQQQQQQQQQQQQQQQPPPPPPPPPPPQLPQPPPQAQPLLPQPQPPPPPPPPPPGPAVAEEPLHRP
Description: FIGS. 17A-17B show a fluorescence quenching assay as a reporter for early events in Htt aggregation.
A fluorescence quenching assay was used to monitor aggregation of HttQ44-BodipyTMR with titrations of various chaperones over a 24-hour time period.

B1: human NAC: purified recombinant human nascent polypeptide-associated complex (αNAC and βNAC 1:1) (protein)
chain 1: MTGSTETRQKEVKEPQVDVSDDSDNEAVEQELTEEQRRVAEAAGLGDHIDKQAKQSRSEKKARKLFSKLGLKQVTGVSRVCIRKSKNILFVINKPDVFKSPGSDTYIIFGEAKIEDLTQHAQMSAIENLKPTREAPQLKTVEEDENEDVEEDSTGIEEKDIELVISQANTTRNKAIRALKEADNDIVNAIMSLTM
chain 2: MMDSKAIAERIKKLQAQQEHVRIGGKGTPRRKKKVIHKTAAADDKKLQSNLKKLSVTNIPGIEEVNMIKDDGTVIHFNNPKVQTSVPANTFSVTGSADNKQITEMLPGILNQLGPESLTHLKKLANNVTKLGPDGKGEDEDVPELVGDFDAASKNETKADEQ
accumulation of PolyQ51 aggregates (PolyQ51): strongly delayed the accumulation of PolyQ51 aggregates
mHttQ51 aggregation ([1]; 5× molar excess, 3 μM mHttQ51, filter trap, SDS-insoluble aggregates): effectively suppressed aggregation
AtxQ78 aggregation [2]: delayed the aggregation of AtxQ78
identified intermolecular crosslinks to the C-terminal region of AtxQ78 close to the expanded PolyQ stretch (AtxQ78): 11 out of 18
luciferase refolding ([3]; NAC added to the Hsp70/Hsp40 system (3.2 μM/0.8 μM), no preincubation): did not enhance luciferase refolding
luciferase refolding ([3]; NAC alone, absence of Hsp70/Hsp40, luciferase 0.02 μM, equimolar NAC): had no effect on luciferase refolding
Aβ40 aggregation (ThT fluorescence) (Aβ40 [4]): completely suppressed Aβ40 aggregation
Aβ40 fibril formation (electron microscopy) (Aβ40 [5]): completely suppressed Aβ40 aggregation and fibril formation

B2: ApiCCT1-bNAC: fusion protein comprising the apical domain of CCT1 fused with the bNAC N-terminal sequence at its C-terminus (protein)
chain: MGVPGYALNCTVASQAMPKRIAGGNVKIACLDLNLQKARMAMGVQINIDDPEQLEQIRKREAGIVLERVKKIIDAGAQVVLTTKGIDDLCLKEFVEAKIMGVRRCKKEDLRRIARATGATLVSSMSNLEGEETFESSYLGLCDEVVQAKFSDDECILIKGTSKAAAAALEGGSGGSMKETIMNQEKLAKLQAQVRIGGKGTARRKKKVVHRTAT
HttQ51 aggregation, titration ([1]; ApiCCT1-bNAC from 15 μM to 0.03 μM, Htt 3 μM, filter trap): can suppress HttQ51 aggregation at sub-molar concentrations
polyQ aggregation of huntingtin exon1 ([1]; system with purified components, listed as fused protein): works even more potently to inhibit huntingtin exon1 aggregation; also recorded: can suppress aggregation even at sub-molar ratios
Htt aggregation over time (fluorescence quenching) (HttQ44-BodipyTMR): better and more stably suppresses Htt aggregation overtime compared to the ApiCCT1 and bNAC N-terminal domain individually
